7 molecules from patent US20240043537A1 can be followed below.

Residue numbers refer to the chain shown, from its start.

First the molecules themselves.
B1: DART-A-M13 (bispecific antibody)
chain 1: DFVMTQSPDSLAVSLGERVTMSCKSSQSLLNSGNQKNYLTWYQQKPGQPPKLLIYWASTRESGVPDRFSGSGSGTDFTLTISSLQAEDVAVYYCQNDYSYPYTFGQGTKLEIKGGGSGGGGEVQLVESGGGLVQPGGSLRLSCAASGFTFSTYAMNWVRQAPGKGLEWVGRIRSKYNNYATYYADSVKDRFTISRDDSKNSLYLQMNSLKTEDTAVYYCVRHGNFGNSYVSWFAEWGQGTLVTVSSGGCGGGKVAALKEKVAALKEKVAALKEKVAALKE
chain 2: QAVVTQEPSLTVSPGGTVTLTCRSSTGAVTTSNYANWVQQKPGQAPRGLIGGTNKRAPWTPARFSGSLLGGKAALTITGAQAEDEADYYCALWYSNLWVFGGGTKLTVLGGGGSGGGGEVQLVQSGAELKKPGASVKVSCKASGYTFTDYYMKWVRQAPGQGLEWIGDIIPSNGATFYNQKFKGRVTITVDKSTSTAYMELSSLRSEDTAVYYCARSHLLRASWFAYWGQGTLVTVSSGGCGGGEVAALEKEVAALEKEVAALEKEVAALEK
B2: DART-A-M1 (bispecific antibody)
chain 1: B1 chain 1 with S231T, E235Y
chain 2: B1 chain 2
B3: DART-A-M2 (bispecific antibody)
chain 1: B1 chain 1 with G223K, S231T, E235Y
chain 2: B1 chain 2
B4: DART-A-M18 (bispecific antibody)
chain 1: B1 chain 1 with A154G, E235Y
chain 2: B1 chain 2
B5: DART-A-M17 (bispecific antibody)
chain 1: B1 chain 1 with Y153T, E235Y
chain 2: B1 chain 2
B6: DART-A-M12 (bispecific antibody)
chain 1: B1 chain 1 with W232Y, E235Y
chain 2: B1 chain 2
B7: DART-A-M15 (bispecific antibody)
chain 1: B1 chain 1 with T152E, E235Y
chain 2: B1 chain 2

Sequence of CD3 (as used for the BIACORE kinetics of Table 11) (P07766 23-126): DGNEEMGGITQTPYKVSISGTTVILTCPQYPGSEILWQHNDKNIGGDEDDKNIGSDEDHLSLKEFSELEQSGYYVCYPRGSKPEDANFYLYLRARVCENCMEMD

The target in the first assay is CD3 on T-cells (UniProt P07766). The assay is described as follows: cell-based or functional assay.
Sequence of CD3 on T-cells (P07766 23-207): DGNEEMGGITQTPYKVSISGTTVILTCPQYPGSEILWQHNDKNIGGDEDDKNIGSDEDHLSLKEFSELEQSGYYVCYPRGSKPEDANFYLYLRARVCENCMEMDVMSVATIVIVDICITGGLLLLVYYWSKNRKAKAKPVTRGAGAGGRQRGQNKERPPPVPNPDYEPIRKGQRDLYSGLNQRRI
As for B1, the EC50 of cytolysis at 18 hours (CTL assay, Pan-T-cells and MOLM-13, E:T = 5:1) was 1.22 ng/mL; the EC50 of cytolysis at 42 hours (CTL assay, Pan-T-cells and MOLM-13, E:T = 5:1) was 0.203 ng/mL; the R: ratio of 18 hour EC50 to DART-A-WT (CTL assay, Pan-T-cells and MOLM-13, E:T = 5:1) was 15.5; the R: ratio of 42 hour EC50 to DART-A-WT (CTL assay, Pan-T-cells and MOLM-13, E:T = 5:1) stood at 72.3. The max % CytoTox at 18 hours (CTL assay, Pan-T-cells and MOLM-13, E:T = 5:1) was 45.1%; the max % CytoTox at 42 hours (CTL assay, Pan-T-cells and MOLM-13, E:T = 5:1) stood at 31.5%.

Take B2: the EC50 of cytolysis at 18 hours (CTL assay, Pan-T-cells and MOLM-13, E:T = 5:1) was determined as 19.6 ng/mL; the EC50 of cytolysis at 42 hours (CTL assay, Pan-T-cells and MOLM-13, E:T = 5:1) was determined as 2.34 ng/mL; the R: ratio of 18 hour EC50 to DART-A-WT (CTL assay, Pan-T-cells and MOLM-13, E:T = 5:1) was determined as 249; the R: ratio of 42 hour EC50 to DART-A-WT (CTL assay, Pan-T-cells and MOLM-13, E:T = 5:1) was determined as 832. The max % CytoTox at 18 hours (CTL assay, Pan-T-cells and MOLM-13, E:T = 5:1) turned out to be 32.3%; the max % CytoTox at 42 hours (CTL assay, Pan-T-cells and MOLM-13, E:T = 5:1) was 32.4%.

For B3, the EC50 of cytolysis at 18 hours (CTL assay, Pan-T-cells and MOLM-13, E:T = 5:1) was determined as 8.11 ng/mL; the EC50 of cytolysis at 42 hours (CTL assay, Pan-T-cells and MOLM-13, E:T = 5:1) was determined as 0.693 ng/mL; the R: ratio of 18 hour EC50 to DART-A-WT (CTL assay, Pan-T-cells and MOLM-13, E:T = 5:1) is 103; the R: ratio of 42 hour EC50 to DART-A-WT (CTL assay, Pan-T-cells and MOLM-13, E:T = 5:1) is 247. For the same molecule, the max % CytoTox at 18 hours (CTL assay, Pan-T-cells and MOLM-13, E:T = 5:1) worked out at 32.3%; the max % CytoTox at 42 hours (CTL assay, Pan-T-cells and MOLM-13, E:T = 5:1) amounted to 32.8%.

As for B4, the EC50 of cytolysis at 18 hours (CTL assay, Pan-T-cells and MOLM-13, E:T = 5:1) was determined as 4.69 ng/mL; the EC50 of cytolysis at 42 hours (CTL assay, Pan-T-cells and MOLM-13, E:T = 5:1) was found to be 0.91 ng/mL; the R: ratio of 18 hour EC50 to DART-A-WT (CTL assay, Pan-T-cells and MOLM-13, E:T = 5:1) was found to be 59.3; the R: ratio of 42 hour EC50 to DART-A-WT (CTL assay, Pan-T-cells and MOLM-13, E:T = 5:1) is 324. This molecule registered a max % CytoTox at 18 hours (CTL assay, Pan-T-cells and MOLM-13, E:T = 5:1) of 41.3%; a max % CytoTox at 42 hours (CTL assay, Pan-T-cells and MOLM-13, E:T = 5:1) of 30.6%.

In the case of B5, the EC50 of cytolysis at 18 hours (CTL assay, Pan-T-cells and MOLM-13, E:T = 5:1) turned out to be 1.28 ng/mL; the EC50 of cytolysis at 42 hours (CTL assay, Pan-T-cells and MOLM-13, E:T = 5:1) came to 0.126 ng/mL; the R: ratio of 18 hour EC50 to DART-A-WT (CTL assay, Pan-T-cells and MOLM-13, E:T = 5:1) came out at 16.2; the R: ratio of 42 hour EC50 to DART-A-WT (CTL assay, Pan-T-cells and MOLM-13, E:T = 5:1) came to 44.9. The molecule further yielded a max % CytoTox at 18 hours (CTL assay, Pan-T-cells and MOLM-13, E:T = 5:1) of 44.2%; a max % CytoTox at 42 hours (CTL assay, Pan-T-cells and MOLM-13, E:T = 5:1) of 30.7%.

For the molecule B6, the EC50 of cytolysis at 18 hours (CTL assay, Pan-T-cells and MOLM-13, E:T = 5:1) was 0.372 ng/mL; the EC50 of cytolysis at 42 hours (CTL assay, Pan-T-cells and MOLM-13, E:T = 5:1) worked out at 0.067 ng/mL; the R: ratio of 18 hour EC50 to DART-A-WT (CTL assay, Pan-T-cells and MOLM-13, E:T = 5:1) worked out at 4.7; the R: ratio of 42 hour EC50 to DART-A-WT (CTL assay, Pan-T-cells and MOLM-13, E:T = 5:1) came out at 24. The max % CytoTox at 18 hours (CTL assay, Pan-T-cells and MOLM-13, E:T = 5:1) turned out to be 49.7%; the max % CytoTox at 42 hours (CTL assay, Pan-T-cells and MOLM-13, E:T = 5:1) stood at 31.5%.

On to B7, for which the EC50 of cytolysis at 18 hours (CTL assay, Pan-T-cells and MOLM-13, E:T = 5:1) was 4.16 ng/mL; the EC50 of cytolysis at 42 hours (CTL assay, Pan-T-cells and MOLM-13, E:T = 5:1) was 0.975 ng/mL; the R: ratio of 18 hour EC50 to DART-A-WT (CTL assay, Pan-T-cells and MOLM-13, E:T = 5:1) is 52.7; the R: ratio of 42 hour EC50 to DART-A-WT (CTL assay, Pan-T-cells and MOLM-13, E:T = 5:1) worked out at 347. For the same molecule, the max % CytoTox at 18 hours (CTL assay, Pan-T-cells and MOLM-13, E:T = 5:1) amounted to 42.7%; the max % CytoTox at 42 hours (CTL assay, Pan-T-cells and MOLM-13, E:T = 5:1) came out at 32%.

A further assay addresses CD3 (as used for the BIACORE kinetics of Table 11) (UniProt P07766). The assay is described as follows: SPR (BIACORE). (SPR reads the build-up and loss of mass on a sensor chip optically.)
For B1, the Kd came to 68.6 nM, the R (KD ratio to DART-A-WT) came out at 8.4, the R (ka ratio to DART-A-WT) worked out at 0.6 and the R (kd ratio to DART-A-WT) is 5.4. Besides, the koff came to 0.022 s⁻¹ and the kon was 321000 M⁻¹ s⁻¹.

Consider B2, for which the Kd was 159 nM, the R (KD ratio to DART-A-WT) is 19, the R (ka ratio to DART-A-WT) turned out to be 0.8 and the R (kd ratio to DART-A-WT) was determined as 16. This molecule also yielded a koff of 0.065 s⁻¹ and a kon of 408000 M⁻¹ s⁻¹.

Regarding B3, the Kd amounted to 12.7 nM, the R (KD ratio to DART-A-WT) came to 1.6, the R (ka ratio to DART-A-WT) worked out at 6.1 and the R (kd ratio to DART-A-WT) was 9.6. The molecule further showed a koff of 0.0391 s⁻¹ and an on-rate (kon) of 3.07e+06 M⁻¹ s⁻¹.

In the case of B4, the dissociation constant (Kd) came out at 205 nM, the R (KD ratio to DART-A-WT) was determined as 25, the R (ka ratio to DART-A-WT) turned out to be 0.6 and the R (kd ratio to DART-A-WT) was found to be 14. Moreover, the koff stood at 0.0588 s⁻¹ and the kon worked out at 287000 M⁻¹ s⁻¹.

As for B5, the Kd stood at 57.2 nM, the R (KD ratio to DART-A-WT) is 7, the R (ka ratio to DART-A-WT) amounted to 1.7 and the R (kd ratio to DART-A-WT) is 12. The molecule also came in with a koff of 0.0478 s⁻¹ and a kon of 837000 M⁻¹ s⁻¹.

Take B6: the Kd came to 12.8 nM, the R (KD ratio to DART-A-WT) was determined as 1.6, the R (ka ratio to DART-A-WT) came to 1.7 and the R (kd ratio to DART-A-WT) came out at 2.7. This molecule yielded a koff of 0.0111 s⁻¹ and an on-rate constant (kon) of 866000 M⁻¹ s⁻¹.

Turning to B7, the Kd is 107 nM, the R (KD ratio to DART-A-WT) came out at 13, the R (ka ratio to DART-A-WT) stood at 0.7 and the R (kd ratio to DART-A-WT) turned out to be 9.2. For the same molecule, the koff turned out to be 0.0375 s⁻¹ and the kon was 352000 M⁻¹ s⁻¹.

As usually defined, the Kd is the constant that tells how readily two partners part at equilibrium. Higher therefore signals weaker binding. Broadly, the koff is a measure of how fast the partners let go of each other. The low end stands for slow dissociation, the high end for fast dissociation. One may read the kon as the rate constant with which the complex forms. A higher kon goes with fast association.
